Experimental data reported in the supplement of paper PMC5998384.

Assays:
[1] = system: HeLa Kyoto; experiment: solubility in G1/S (NP-40 vs SDS abundance) (log2 ratio); higher = more soluble; conditions: cell cycle stage: G1/S
[2] = system: HeLa Kyoto; experiment: melting temperature (median over replicates), in situ; higher = more thermally stable
[3] = system: HeLa Kyoto; experiment: solubility change mitosis vs G1/S (difference of NP-40 vs SDS log2 ratios) (log2 ratio difference); higher = more soluble in mitosis
[4] = system: HeLa Kyoto; experiment: thermal stability score vs G1/S (z-score of summed log2 fold changes over temperatures); higher = more thermally stable than in G1/S
[5] = cell cycle stage: early G1 (4.5 h after nocodazole release)
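Throughout, for melting temperature (median over replicates), in situ: HeLa Kyoto cells synchronized by double thymidine or nocodazole block, proteins quantified by TMT10plex mass spectrometry, three independent biological replicates.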
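Throughout, for solubility change mitosis vs G1/S (difference of NP-40 vs SDS log2 ratios): synchronized HeLa Kyoto cells (double thymidine block for G1/S, nocodazole release for mitosis), protein amounts in NP-40 versus SDS lysates quantified by mass spectrometry, three biological replicates.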
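Throughout, for solubility in G1/S (NP-40 vs SDS abundance): HeLa Kyoto cells arrested at G1/S by double thymidine block, proteins quantified by TMT10plex mass spectrometry in mild NP-40 versus SDS extracts, three biological replicates.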
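Throughout, for thermal stability score vs G1/S (z-score of summed log2 fold changes over temperatures): synchronized HeLa Kyoto cells, proteins quantified by TMT10plex mass spectrometry, three biological replicates, mitosis taken 0.5 h after nocodazole release, G1/S directly after double thymidine block.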

Row | Substance | solubility in G1/S (log2) [1] | melting temperature ([2]; cell cycle stage: G1/S) [°C] | melting temperature ([2]; cell cycle stage: mitosis) [°C] | solubility change mitosis (log2) [3] | thermal stability score [4, 5] | thermal stability score ([4]; cell cycle stage: mitosis)
1 | MDLLPPKPKYNPLRNESLSSLEEGASGSTPPEELPSPSASSLGPILPPLPGDDSPTTLCSFFPRMSNLRLANPAGGRPGSKGEPGRAADDGEGIVGAAMPDSGPLPLLQDMNKLSGGGGRRTRVEGGQLGGEEWTRHGSFVNKPTRGWLHPNDKVMGPGVSYLVRYMGCVEVLQSMRALDFNTRTQVTREAISLVCEAVPGAKGATRRRKPCSRPLSSILGRSNLKFAGMPITLTVSTSSLNLMAADCKQIIANHHMQSISFASGGDPDTAEYVAYVAKDPVNQRACHILECPEGLAQDVISTIGQAFELRFKQYLRNPPKLVTPHDRMAGFDGSAWDEEEEEPPDHQYYNDFPGKEPPLGGVVDMRLREGAAPGAARPTAPNAQTPSHLGATLPVGQPVGGDPEVRKQMPPPPPCPGRELFDDPSYVNVQNLDKARQAVGGAGPPNPAINGSAPRDLFDMKPFEDALRVPPPPQSVSMAEQLRGEPWFHGKLSRREAEALLQLNGDFLVRESTTTPGQYVLTGLQSGQPKHLLLVDPEGVVRTKDHRFESVSHLISYHMDNHLPIISAGSELCLQQPVERKL [SHC1] | 0.307 | 52.5 | 52.9 | -0.067 | -1.86 | -2.06
2 | MDLMNGQASSVNIAATASEKSSSSESLSDKGSELKKSFDAVVFDVLKVTPEEYAGQITLMDVPVFKAIQPDELSSCGWNKKEKYSSAPNAVAFTRRFNHVSFWVVREILHAQTLKIRAEVLSHYIKTAKKLYELNNLHALMAVVSGLQSAPIFRLTKTWALLSRKDKTTFEKLEYVMSKEDNYKRLRDYISSLKMTPCIPYLGIYLSDLTYIDSAYPSTGSILENEQRSNLMNNILRIISDLQQSCEYDIPMLPHVQKYLNSVQYIEELQKFVEDDNYKLSLKIEPGTSTPRSAASREDLVGPEVGASPQSGRKSVAAEGALLPQTPPSPRNLIPHGHRKCHSLGYNFIHKMNTAEFKSATFPNAGPRHLLDDSVMEPHAPSRGQAESSTLSSGISIGSSDGSELSEETSWPAFERNRLYHSLGPVTRVARNGYRSHMKASSSAESEDLAVHLYPGAVTIQGVLRRKTLLKEGKKPTVASWTKYWAALCGTQLFYYAAKSLKATERKHFKSTSNKNVSVIGWMVMMADDPEHPDLFLLTDSEKGNSYKFQAGNRMNAMLWFKHLSAACQSNKQQVPTNLMTFE [RALGPS2] | 0.0658 | 51 | 50.5 | -0.165 | -0.455 | -0.819
3 | MDLRVGQRPPVEPPPEPTLLALQRPQRLHHHLFLAGLQQQRSVEPMRLSMDTPMPELQVGPQEQELRQLLHKDKSKRSAVASSVVKQKLAEVILKKQQAALERTVHPNSPGIPYRTLEPLETEGATRSMLSSFLPPVPSLPSDPPEHFPLRKTVSEPNLKLRYKPKKSLERRKNPLLRKESAPPSLRRRPAETLGDSSPSSSSTPASGCSSPNDSEHGPNPILGSEALLGQRLRLQETSVAPFALPTVSLLPAITLGLPAPARADSDRRTHPTLGPRGPILGSPHTPLFLPHGLEPEAGGTLPSRLQPILLLDPSGSHAPLLTVPGLGPLPFHFAQSLMTTERLSGSGLHWPLSRTRSEPLPPSATAPPPPGPMQPRLEQLKTHVQVIKRSAKPSEKPRLRQIPSAEDLETDGGGPGQVVDDGLEHRELGHGQPEARGPAPLQQHPQVLLWEQQRLAGRLPRGSTGDTVLLPLAQGGHRPLSRAQSSPAAPASLSAPEPASQARVLSSSETPARTLPFTTGLIYDSVMLKHQCSCGDNSRHPEHAGRIQSIWSRLQERGLRSQCECLRGRKASLEELQSVHSERHVLLYGTNPLSRLKLDNGKLAGLLAQRMFVMLPCGGVGVDTDTIWNELHSSNAARWAAGSVTDLAFKVASRELKNGFAVVRPPGHHADHSTAMGFCFFNSVAIACRQLQQQSKASKILIVDWDVHHGNGTQQTFYQDPSVLYISLHRHDDGNFFPGSGAVDEVGAGSGEGFNVNVAWAGGLDPPMGDPEYLAAFRIVVMPIAREFSPDLVLVSAGFDAAEGHPAPLGGYHVSAKCFGYMTQQLMNLAGGAVVLALEGGHDLTAICDASEACVAALLGNRVDPLSEEGWKQKPNLNAIRSLEAVIRVHSKYWGCMQRLASCPDSWVPRVPGADKEEVEAVTALASLSVGILAEDRPSEQLVEEEEPMNL [HDAC7] | 0.129 | 53 | 52.3 | 0.0342 | 0.178 | -0.224
4 | MDLWPGAWMLLLLLFLLLLFLLPTLWFCSPSAKYFFKMAFYNGWILFLAVLAIPVCAVRGRNVENMKILRLMLLHIKYLYGIRVEVRGAHHFPPSQPYVVVSNHQSSLDLLGMMEVLPGRCVPIAKRELLWAGSAGLACWLAGVIFIDRKRTGDAISVMSEVAQTLLTQDVRVWVFPEGTRNHNGSMLPFKRGAFHLAVQAQVPIVPIVMSSYQDFYCKKERRFTSGQCQVRVLPPVPTEGLTPDDVPALADRVRHSMLTVFREISTDGRGGGDYLKKPGGGG [AGPAT1] | -0.318 | 53.3 | 52.7 | 0.0448 | 0.708 | 0.125
5 | MDMGNQHPSISRLQEIQKEVKSVEQQVIGFSGLSDDKNYKKLERILTKQLFEIDSVDTEGKGDIQQARKRAAQETERLLKELEQNANHPHRIEIQNIFEEAQSLVREKIVPFYNGGNCVTDEFEEGIQDIILRLTHVKTGGKISLRKARYHTLTKICAVQEIIEDCMKKQPSLPLSEDAHPSVAKINFVMCEVNKARGVLIALLMGVNNNETCRHLSCVLSGLIADLDALDVCGRTEIRNYRREVVEDINKLLKYLDLEEEADTTKAFDLRQNHSILKIEKVLKRMREIKNELLQAQNPSELYLSSKTELQGLIGQLDEVSLEKNPCIREARRRAVIEVQTLITYIDLKEALEKRKLFACEEHPSHKAVWNVLGNLSEIQGEVLSFDGNRTDKNYIRLEELLTKQLLALDAVDPQGEEKCKAARKQAVRLAQNILSYLDLKSDEWEY [BAG5] | 0.621 | 49.6 | 50.4 | -0.166 | 1.27 | 1.14
6 | MDN1 | -0.665 | 51.1 | 50.5 | 0.182 | 0.349 | 1.35
7 | MDNMSITNTPTSNDACLSIVHSLMCHRQGGESETFAKRAIESLVKKLKEKKDELDSLITAITTNGAHPSKCVTIQRTLDGRLQVAGRKGFPHVIYARLWRWPDLHKNELKHVKYCQYAFDLKCDSVCVNPYHYERVVSPGIDLSGLTLQSNAPSSMMVKDEYVHDFEGQPSLSTEGHSIQTIQHPPSNRASTETYSTPALLAPSESNATSTANFPNIPVASTSQPASILGGSHSEGLLQIASGPQPGQQQNGFTGQPATYHHNSTTTWTGSRTAPYTPNLPHHQNGHLQHHPPMPPHPGHYWPVHNELAFQPPISNHPAPEYWCSIAYFEMDVQVGETFKVPSSCPIVTVDGYVDPSGGDRFCLGQLSNVHRTEAIERARLHIGKGVQLECKGEGDVWVRCLSDHAVFVQSYYLDREAGRAPGDAVHKIYPSAYIKVFDLRQCHRQMQQQAATAQAAAAAQAAAVAGNIPGPGSVGGIAPAISLSAAAGIGVDDLRRLCILRMSFVKGWGPDYPRQSIKETPCWIEIHLHRALQLLDEVLHTMPIADPQPLD [SMAD4] | -0.0138 | 51.3 | 50.9 | -0.03 | 0.424 | 0.695
8 | MDNSGKEAEAMALLAEAERKVKNSQSFFSGLFGGSSKIEEACEIYARAANMFKMAKNWSAAGNAFCQAAQLHLQLQSKHDAATCFVDAGNAFKKADPQEAINCLMRAIEIYTDMGRFTIAAKHHISIAEIYETELVDIEKAIAHYEQSADYYKGEESNSSANKCLLKVAGYAALLEQYQKAIDIYEQVGTNAMDSPLLKYSAKDYFFKAALCHFCIDMLNAKLAVQKYEELFPAFSDSRECKLMKKLLEAHEEQNVDSYTESVKEYDSISRLDQWLTTMLLRIKKTIQGDEEDLR [NAPA] | 0.324 | 51.7 | 52.2 | 0.0471 | -0.447 | -0.81
9 | MDPFLVLLHSVSSSLSSSELTELKFLCLGRVGKRKLERVQSGLDLFSMLLEQNDLEPGHTELLRELLASLRRHDLLRRVDDFEAGAAAGAAPGEEDLCAAFNVICDNVGKDWRRLARQLKVSDTKIDSIEDRYPRNLTERVRESLRIWKNTEKENATVAHLVGALRSCQMNLVADLVQEVQQARDLQNRSGAMSPMSWNSDASTSEAS [FADD] | -0.257 | 52.3 | 49.4 | -0.0735 | -0.0741 | 1.4
10 | MDPGDDWLVESLRLYQDFYAFDLSGATRVLEWIDDKGVFVAGYESLKKNEILHLKLPLRLSVKENKGLFPERDFKVRHGGFSDRSIFDLKHVPHTRLLVTSGLPGCYLQVWQVAEDSDVIKAVSTIAVHEKEESLWPRVAVFSTLAPGVLHGARLRSLQVVDLESRKTTYTSDVSDSEELSSLQVLDADTFAFCCASGRLGLVDTRQKWAPLENRSPGPGSGGERWCAEVGSWGQGPGPSIASLGSDGRLCLLDPRDLCHPVSSVQCPVSVPSPDPELLRVTWAPGLKNCLAISGFDGTVQVYDATSWDGTRSQDGTRSQVEPLFTHRGHIFLDGNGMDPAPLVTTHTWHPCRPRTLLSATNDASLHVWDWVDLCAPR [WDR73] | -0.0335 | 54.8 | 54 | -0.0847 | 0.072 | 0.551
11 | MDPRKVNELRAFVKMCKQDPSVLHTEEMRFLREWVESMGGKVPPATQKAKSEENTKEEKPDSKKVEEDLKADEPSSEESDLEIDKEGVIEPDTDAPQEMGDENAEITEEMMDQANDKKVAAIEALNDGELQKAIDLFTDAIKLNPRLAILYAKRASVFVKLQKPNAAIRDCDRAIEINPDSAQPYKWRGKAHRLLGHWEEAAHDLALACKLDYDEDASAMLKEVQPRAQKIAEHRRKYERKREEREIKERIERVKKAREEHERAQREEEARRQSGAQYGSFPGGFPGGMPGNFPGGMPGMGGGMPGMAGMPGLNEILSDPEVLAAMQDPEVMVAFQDVAQNPANMSKYQSNPKVMNLISKLSAKFGGQA [ST13] | 0.813 | 51.8 | 51.3 | 0.103 | 2.23 | 1.79
